According to the RNAGym collection of RNA variant scans (doi:10.1073/pnas.2313332121):

B1: TPR t1 (parent)
chain: GACCAAUCUGCCCUCAGAGCUCGAGAACAUCUUCGGAUGCAGAGGAGGCAGGCUUCGGUGGCGCGAUAGCGCCAACGUCCUCAACCUCCAAUGCAUCCCACCACAUGAUGAUGCCUGAAGAGCCUUGGUUUUUUG

Variants of: B1
Assay: polymerase ribozyme fitness, log enrichment relative to wild type (log ratio); higher = more active; in vitro selection for triplet polymerase activity
How it was run: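 Only genotypes with ≥10 input reads and ≥1 read per output were kept after Illumina sequencing of input and output libraries. These libraries were PCR-built, transcribed mutants of each subunit of a heterodimeric triplet polymerase ribozyme, each put through one triplicate in vitro selection round with frozen incubation at −7 °C, gel excision of extended constructs, streptavidin-bead capture and RT-PCR. Fitness is a logarithmic ratio of genotype enrichment to wild-type enrichment, from inverse-variance-weighted replicate averages, with the logarithm in base 2.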

| Variant | polymerase ribozyme fitness (log ratio) |
| --- | --- |
| A18C C20A U55C G57A G63A | -4.91 |
| A18U U67G C101G U116C | -5.12 |
| A18U G61A C123G | 0.0966 |
| G19A C49G C85U A111C | -2.99 |
| A18C U59A C89U G122A | -3.38 |
| A18C C101A C123U G127A | -4.43 |
| A18G G36U C56G | -6.14 |
| A18C U38A C115A U116G C123U U126A | -4.52 |
| A18U C72U | -2.03 |
| A18C A24G | -3.95 |
| G17U U133G | -2.64 |
| A18U G48A U59G G113A G135U | -4.36 |
| A18C C40G C70A A83G C94U C115U U129G | -5.58 |
| A18C A50U G60U C102A A119G G127U | -7.23 |
| A18U G44C U92A A119U C123A | -5.44 |
| A18G C20U A95C | -1.56 |
| A18C C56G C124A | -0.202 |
| A18G C72A | -2.98 |
| A18G C56G A83U G110C | -4.59 |
| A18U U112A | -1.42 |
| A18U U112G | -2.46 |
| A18C A74C A84C C115U | -1.56 |
| A18C G48U C56U A84G | -4.19 |
| A18C G52A G61A A118G | -2.74 |

| Variant | polymerase ribozyme fitness (log ratio) |
| --- | --- |
| G19A C62U U78C G127C | -4.4 |
| A18U G47U C101A U109A G113A U116A | -6.66 |
| A18G C62U | -2.68 |
| A18U G35U G71A A108G C115U | -6.98 |
| G19A C79G U81C | -3.95 |
| A18U A50C C70A G71A C123U | -6.84 |
| A18C G71A | -4.91 |
| A18U C40U G113A G117A | -6 |
| A18C A83G A105G C115U | -3.42 |
| A18U G71U U92G | -5.1 |
| A18U U32A C56A A105C G120C G122A C124A | -4.84 |
| A18G A27G | -4.94 |
| A18C G69C | -4.31 |
| A18C A95U | -3.68 |
| G17U U96G C98A G113U | -6.9 |
| G19A A74C | -3.23 |
| A18G C20U G93U U109A C115A | -5.78 |
| G17U U87A U106A G128A | -3.83 |
| A18G A43C U54A | -4.06 |
| A18G G19U C49U C85U G110C U112G | -5.77 |
| G17U U78C | -2.6 |
| A18C C40A U78G C82G A121U U130A | -3.87 |
| A18G G48U C72A U130G | -6.5 |
| A18C C89G | -2.48 |

| Variant | polymerase ribozyme fitness (log ratio) |
| --- | --- |
| A18U G36U | -3.48 |
| A18U G36A | -3.63 |
| A18U U129A | -4.3 |
| A18U U129G | -3.92 |
| A18C C53G C76U | -3.42 |
| G17U U55C | -2.57 |
| A18C U116A | -3.4 |
| A18U C62U A84C G120U G135U | -5.35 |
| A18C G61C U112G | -6.42 |
| A18C C72G U78C C104A C114G | -3.63 |
| A18C C89G C114A U130A | -3.2 |
| A18U A41U | -2.88 |
| A18U G52C G61C U87C G120C | -4.57 |
| A18U G93C C94U | -3.75 |
| A18G G19U A46G U59A C79A | -4.25 |
| A18G G107A | -3.37 |
| A18C A83C | -1.95 |
| A18U C49G C88A C101A C123U U126A | -4.99 |
| G17U U81A | -3.22 |
| A18U A66G U78C A118G U132A | -3.83 |
| A18G G57U | -3.92 |
| A18C U54G U87G A121U | -0.603 |
| A18G G69U C102U C115A | -5.41 |
| A18C G19A G71U C104U C115A | -0.527 |

| Variant | polymerase ribozyme fitness (log ratio) |
| --- | --- |
| A18U C73U U96G C104U | -2.93 |
| A18U G35U U54G C88A U112A | -7.02 |
| A18C C101A | -3.03 |
| G19A C40U U112A | -0.444 |
| A18G C20G C31A G60C C99A G110U | -1.91 |
| A18G C49A C79U G120C G128U | -5.04 |
| A18U C53A | -2.38 |
| A18G G61C C114U | -5.18 |
| A18U G113U | -4.9 |
| A18G G42A G63U G113A U132A | -3.41 |
| A18U C22U A43G G60A | -6.88 |
| A18U C115U | -2.09 |
| A18C G71A C88U G93C | -4.58 |
| A18U G122U | -2.38 |
| A18U A41C C72G | -2.61 |
| A18U C56U U87G U106C A121C | -0.72 |
| A18U G44A C94A C114A | -3.45 |
| A18U G45A | -2.78 |
| A18G C70A | -4.01 |
| A18U A37U A41G C64U | -2.4 |
| A18U C89U | -1.53 |
| G19A C72A | -2.12 |
| A18G C22G A27U G117C | -4.21 |
| G19A C22G A43C G71A C89A U125A | -6.8 |

| Variant | polymerase ribozyme fitness (log ratio) |
| --- | --- |
| A18C C49G C89G C123U | -2.67 |
| A18U A46U G61U A90C C115G | -2.56 |
| A18U G48C G71U C82A | -5.32 |
| A18C G47U | -4.12 |
| A18G G19A A43C C56U C70U G110A | -4.41 |
| A18U C72U U78A | -2.59 |
| A18U U78A A95U C104U | -4.27 |
| A18G G60U U96G A108U | -7.14 |
| A18C A43G C72G C114U U129C | -4.8 |
| A18C A46U G71A A84G G117C | -7.1 |
| A18U G42A C53G G71C C85U C89A | -4.28 |
| A18C A43C G113A | -2.81 |
| A18U A43G | -1.5 |
| G19A C20A U59C U96A | -5.13 |
| A18G C49A U92A C123A | -4.5 |
| A18G G122A | -3.35 |
| A18C C49G | -3.27 |
| A18C A37G C62G | -6.59 |
| A18G G69U | -1.47 |
| A18G C56U | -2.25 |
| A18U G120U | -1.46 |
| A18U U21A A24G U55G | -3.96 |
| G19A A41U C53A G60C A121U | -5.24 |
| A18C U125G | -3.63 |

| Variant | polymerase ribozyme fitness (log ratio) |
| --- | --- |
| A18G C73A U87G | -3.89 |
| A18U C62G C82A C114A U131A G135A | -4.32 |
| A18U G19A G39U C115G | -3 |
| A18U C28U G36U C70U C79G G120A C124A | -6.76 |
| A18U C70U A84G | -6.3 |
| A18G U106A U109C | -3.8 |
| A18U G47U | -3.96 |
| A18C G36C G57U | -4.25 |
| G19A A41U U78C U132C | -4.37 |
| A18G U78C G117U C123A C124G | -1.41 |
| A18G G69U U81C G107U | -3.65 |
| A18C C89G U106A | -2.89 |
| A18U G44U | -2.49 |
| A18U G44A | -2.99 |
| A18U A46C G52A | -4.31 |
| A18C U55A G57C C70G C124A | -6.54 |
| A18U C49U C102U G117A | -7.34 |
| A18G G48U | -2.96 |
| A18U C20G | -4.36 |
| A18U A90C G120A | -0.842 |
| G19A C73U C82U C114A | -1.84 |
| A18U C114A U125A U133G | -1.87 |
| A18U G52U U133A | -3.89 |
| A18U G42C A43C G93C | -5.75 |

| Variant | polymerase ribozyme fitness (log ratio) |
| --- | --- |
| A18C C40U C73U | -2.05 |
| A18C U21A C72G G93C | -4.4 |
| A18U C79G G110A | -6 |
| A18U A66U | -3.87 |
| A18U U38G C56U C114A G135U | -2.6 |
| A18U G110U | -3.52 |
| A18U G71A G93U U131G | -5.74 |
| A18C G61C | -2.87 |
| A18U A37U U78G A84U U87A | -4.45 |
| A18U C40A G120U C123A U129C | -4.63 |
| A18U A83U G120A | -2.42 |
| A18C G42U A46G G47A C86U | -2 |
| A18U A37C C82G U92C U116A A121G | -5.42 |
| A18G C72U U81A A91U U96C G120A G128A | -6.28 |
| G19A A41U U81A C82A U112A | -0.674 |
| A18U U78C C88U U112G | -2.16 |
| A18C U106A | -3.06 |
| G19A A37C G61U G120C | -2.13 |
| A18U C64U C97U U116C G120A | -4.84 |
| G19A C70G G113U | -5.75 |
| A18U G63C C64U C97G G117A | -6.33 |
| A18G C64G C98U G117C | -5.51 |
| A18C C20A U54A G63C U96A | -4.09 |
